The record followed here is article PMC8299219 (Cell, 2021).

Where a chain is given by its changes, count along the chain named.

The test has as its target SARS-CoV-2 S ectodomain trimer, prefusion-stabilized, 2P variant (Wrapp et al., 2020) (SARS-CoV-2, Wuhan-Hu-1, UniProt P0DTC2, stabilised).

B1: C83B6 (antibody, V domains shown)
VH: EVQLVESGGGLVKPGGSLRLSCAASGFTFSSYSMNWVRQAPGKGLEWVSYISSSSSTIYYADSVKGRFTISRDNAKNSLYLQMNSLRDEDTAVYYCARDRGGYGPYYYGMDVWGQGTTVTVSS
VL: not shown
For the molecule B1, the binding result is “binds”.

B2: C81B10 (antibody, V domains shown)
VH: QLQLQESGPGLVKPSQTLSLTCTVSGGSISSGDYYWSWIRQPPGKGLEWIGYIYYSGSTYYNPSLKSRVTISVDTSKNQFSLKLSSVTAADTAVYYCARVRGTYYYVSGSYYPRPLYYYYMDVWGKGTTVTVSS
VL: not shown
B2: the binding result is reported as “binds”.

B3: C41N3 (antibody, V domains shown)
VH: EVQLVESGGGLVQPGRSLRLSCAASGFTFDDYAMHWVRQAPGKGLEWVSGISWQSGSIGYADSVKGRFTISRDNAKNSLYLQMNSLRAEDTALYYCAKDPGYDSSGYYYDYWGQGALVTVSS
VL: not shown
Turning to B3, the binding result was “binds”.

B4: C12D1 (antibody, V domains shown)
VH: EVQLVQSGAEVIKPGESLKISCKGSGYSFTSYWIGWVRQMPGKGLEWMGIIYPGDSDTRYSPSFQGQVTISADKSISTAYLQWSSLKASDTAIYYCARLGGSVTNIEFIDYWGQGTLVTVSS
VL: not shown
In the case of B4, the binding result is reported as “binds”.

B5: C83A7 (antibody, V domains shown)
VH: QVQLQESGPGLVKPSETLSLTCTVSGGSVSSGSYYWSWIRQPPGKGLEWIGYIYYSGRTNYNPSLKSRVTISVDTSKNQFSLKLSSVTAADTAVYYCARTVITMIVGNWYFDLWGRGTLVTVSS
VL: not shown
B5: the binding result is “binds”.

B6: C81F5 (antibody, V domains shown)
VH: QVQLVESGGGVVQPGRSLRLSCAASGFTFSNSGMHWVRQAPGKGLEWVAVISYDGSHKYYADSVKGRFTISRDNSKNTLYLQMNTLRAEDTAVYYCAKEESAVAGTGVPYYYYYYMDVWGKGTTVTVSS
VL: not shown
For B6, the binding result is reported as “binds”.

B7: G32L2 (antibody, V domains shown)
VH: QVQLVESGGGVVQPGTSLRLSCAASGFTFSNYDIHWVRQAPGKGLEWVAVISYDGSNKYYADSVKGRFTISRDNSKNTLYLQMNSLRAEDTAVYYCAKDLVLRYFDWLFDGPDYWGQGTLVTVSS
VL: SYELTQPPSVSVSPGQTARITCSGDALPKKYAYWYQQKSGQAPVLVIYEDSKRPSGIPERFSGSSSGTMATLTISGAQVEDEADYYCYSTDSSGNHGVFGGGTKLTVL
In the case of B7, the binding result is listed as “binds”.

B8: G32Q2 (antibody, V domains shown)
VH: EVQLLESGGGLVQPGGSLRLSCAASGFTFSNYAMSWVRQAPGKGLEWVSAISGSGSTTYYADSVKGRFTISRDNSKNTLFLQVNSLRAEDTAVYYCAKGERIIMMVVLTLFDYWGQGTLVTVSS
VL: QSVLTQPPSVSAAPGQKVTISCPGSSSNIGKNYVSWYQQLPGTAPKLLIYDNNKRPSGIPDRFTGSKSGTSATLDITGLQTGDEADYYCGTWDSSLSAGWVFGGGTKLTVL
On to B8, for which the binding result was “binds”.

B9: C163E5 (antibody, V domains shown)
VH: QVQLQESGPGLVKPSETLSLTCTVSGASIRSFHWSWIRQPAGKGLEWIGRLLTTGSTNYNRSLKSRVTMSVDTSKNQFSLKLSSVTAADTAVYYCSRGTEMNMEVPGVVTGSEFFDYWGQGTLVTVSS
VL: EIVLTQSPATLSLSPGERATLSCRASQSVSSYLAWYQRKPGQAPRLLIYDASNRATGIPARFSGSGSGTDFTLTISSLEPEDFAVYYCQQRRNWPETFGQGTKLEIK
As for B9, the binding result is “binds”.

B10: C81G9 (antibody, V domains shown)
VH: EVQLVESGGGLVQPGGSLRLSCAASGFTFSSYSVNWVRQAPGKGLEWVSYISSSSLTIYYADSVKGRFIISRDNAKNSLYLQMNSLRDEDTAVYHCAREGPSSSWFSYYYMDVWGKGTTVTVSS
VL: QSALTQPASVSGSPGQSITISCTGTSSDVGSYNLVSWYQQHPGKAPKLMIYEGSKRPSGVSNRFSGSKSGNTASLTISGLQAEDEAEYYCCSYAGSSTSPYVFGTGTKVTAL
Regarding B10, the binding result is listed as “binds”.

B11: C12C6 (antibody, V domains shown)
VH: QVQLVESGGGVVQPGRSLRLSCAASGFTFSSYAMHWVRQAPGKGLEWVAVISYDGSNKHYADSVKGRFTISRDNSKNTLYLQMNSLRAEDTAVYYCARDPQYCSSTSCSMGVGWFDPWGQGTLVTVSS
VL: SYELTQPPSVSVAPGKTARITCGGNNIGSKSVHWYQQKPGQAPVLVIYYDSDRPSGIPERFSGSNSGNTATLTISRVEAGDEADYYCQVWDSSSDHAYWVFGGGTKLTVL
For the molecule B11, the binding result is reported as “binds”.

B12: C93D1 (antibody, V domains shown)
VH: QVQLVESGGGVVQPGRSLRLSCAASGFTFSNYGMHWVRQAPGKGLEWVAVISYDGSNKYYADSVKGRFTISRDNSKNTLYLQMNSLRAEDTAVYYCAKGSYFHSNYWDYFDYWGQGTLVTVSS
VL: not shown
Consider B12, for which the binding result is given as “binds”.

B13: C12E9 (antibody, V domains shown)
VH: QVQLVQSGAEVKKPGSSVKVSCKASGGTFSSYAISWVRQAPGQGLEWMGGIIPIFGTASYAQKFQGRVTITADESTSTAYMELSSLRSEDTAVYYCARGSVGLGGDCYQCGYYFDYWGQGTLVTVSS
VL: not shown
As for B13, the binding result is given as “binds”.

B14: C53E4 (antibody, V domains shown)
VH: QVQLVQSGAEVKKPGASVKVSCKASGYTYTSYGISWVRQAPGRGLEWMGWISAYNGNTNYAQKLQGRVTMTTDTSTSTAYMELRSLRSDDTAVYYCARDQGLWYYYDSSGFALDYWGQGTLVTVSS
VL: EIVLTQSPATLSLSPGERATLSCRASQSVSSYLAWYQQKPGQAPRLLIYDASNRATGIPARFSGSGSGTDFTLTISSLEPEDFAVYYCQQRSNWPRYTFGQGTKLEIK
With B14, the binding result is recorded as “binds”.

B15: C53E6 (antibody, V domains shown)
VH: EVQLVESGGGLVKPGGSLKLSCAASGFTFSSYSMNWVRQAPGKGLEWVSSISSSSSYIYYADSVKGRFTISRDNAKNSLYLQMNSLRAEDTAVYYCARASYDFWSGQDHWFDPWGQGTLVTVSS
VL: B14 VL with R61K, R96P, Y97I, K104R
On to B15, for which the binding result was “binds”.

B16: C81G11 (antibody, V domains shown)
VH: QVQLQESGPGLVKPSGTLSLTCAVSGGSISSSNWWSWVRQPPGKGLEWIGEIYHSGNTNYNPSLTSRVTLSVDKSKNQFSLKLSSVTAADTALYYCAGRFCGSTSCPNWFDPWGQGTLVTVSS
VL: QSALTQPASVSGSPGQSITISCTGTSSDVGSYNLVSWYQQHPGKAPKLMIYEGSKRPSGVSNRFSGSKSGNTASLTISGLQAEDEADYYCCSYAGSSTWVFGGGTKLTVL
Take B16: the binding result is reported as “binds”.

B17: C12D6 (antibody, V domains shown)
VH: QLQLQETGPGLVKPSGTLSLTCAVSGDSISSSDWWTWVRQPPGKGLEWIGEIYHSGSTNYNPSLKSRVTISVDKSKNQFSLKLSSVTAADTAVYYCARRGRAASERGTGNFDYWGQGTLVTVSS
VL: B16 VL with G53V
In the case of B17, the binding result was “binds”.

B18: C12J11 (antibody, V domains shown)
VH: QVQLQESGPGLVKPSGTLSLTCAVSGGSISSSNWWSWVRQPPGKGLEWIGEIYHSGSTNYNPSLKSRVTISVDKSKNQFSLKLSSVTAADTAVYYCAIRASGYYNWFDPWGQGTLVTVSS
VL: B16 VL with C91Y
Consider B18, for which the binding result was “binds”.

B19: C12I5 (antibody, V domains shown)
VH: B18 VH with I98R, R99G, A100W, S101G, G102S, Y103S, Y104S, N105Y
VL: B16 VL
As to B19, the binding result was “binds”.

B20: C81A3 (antibody, V domains shown)
VH: QVQLQESGPGLVKPSGTLSLTCAVSGGSISSSNWWSWVRQPPGKGLEWIGEIYHSGSTNYNPSLKSRVTISVDKSKNQFSLKLSSVTAADTAVYYCARRYCSGGSCSGFDYWGQGTLVTVSS
VL: B16 VL with Q40H, S96F
Regarding B20, the binding result is given as “binds”.

B21: C12I11 (antibody, V domains shown)
VH: QVQLQESGPGLVKPSGTLSLTCAISGGSISSSNWWSWVRQPPGKGLEWIGEIYHSGSTNYNPSLKSRVTISVDKSKNQFSLKLSSVTAADTAVYYCARGALVPAARLNAFDIWGQGTMVTVSS
VL: B16 VL with W99Y, G103T, L107V
Consider B21, for which the binding result is recorded as “binds”.

B22: C29C2 (antibody, V domains shown)
VH: EVQLVQSGAEVKKPGESLKISCKGSGYSFTSYWIGWVRQMPGKGLEWMGIIYPGDSDTRYSPSFQGQVTISADKSISTAYLQWSSLKASDTAMYYCARLPVSTHPLYYYFGMDVWGQGTTVTVSS
VL: not shown
Consider B22, for which the binding result is recorded as “binds”.

B23: G32L7 (antibody, V domains shown)
VH: EVQLLESGGGSVQPGGSLRLSCAASGFTFSSYAMSWVRQAPGKGLEWVSVISGSGGSTYYADSVKGRFTISRDNSKNTLYLQMNSLRAEDTAVYYCAKAERITMLVVVTLIDYWGQGTLVTVSS
VL: QSVLTQPPSVSAAPGQKVTISCSGSSSNIGNNYVSWYQQLPGTAPKLLIYDNNKRPSGIPDRFSGSKSGTSATLGITGLQTGDEADYYCGTWDSSLSAVVFGGGTKLTVL
For the molecule B23, the binding result is listed as “binds”.

B24: C12B10 (antibody, V domains shown)
VH: EVQLVESGGGLVQPGGSLRLSCAASGFTFSSYAMHWVRQAPGKGLEYVSAINSYGGSTYYANSVKGRFTISRDNSKNTLYLQMGSLRAEDMAVYYCAREVQGVATMDGAFDIWGQGTMVTVSS
VL: SYELTQPPSVSVAPGKTARITCGGNNIGSKSVHWYQQKPGQAPVLVIYYDSDRPSGIPERFSGSNSGNTATLTISRVEAGDEADYYCQVWDSSSDPHWVFGGGTKLTVL
Turning to B24, the binding result is reported as “binds”.

B25: C93D6 (antibody, V domains shown)
VH: EVQLVESGGGLVKPGGSLRLSCAASGFTFSSYSMNWVRQAPGKGLEWVSSISSSSSYIYYADSVKGRFTISRDNAKNSLYLQMNSLRAEDTAVYYCASDLMEDYDFLSGSATSPFDYWGQGTLVTVSS
VL: not shown
Turning to B25, the binding result is listed as “binds”.
